According to article PMC5032119:

Molecular target: Ku70-HisTag (mouse) (UniProt P23475)
Test: fluorescence polarisation; FIDA-PO on an MF20 (Olympus) single molecule fluorescence spectroscopy; 5 nM fluorescent Ku70-HisTag in solution, 500 nM GST-HttExon1-110Q added; 40 ul per well, 384-well glass-bottom plate, PBS with 0.01% Tween 20 and 1% DMSO, room temperature

Sequence of UniProt P23475 (P23475 whole entry): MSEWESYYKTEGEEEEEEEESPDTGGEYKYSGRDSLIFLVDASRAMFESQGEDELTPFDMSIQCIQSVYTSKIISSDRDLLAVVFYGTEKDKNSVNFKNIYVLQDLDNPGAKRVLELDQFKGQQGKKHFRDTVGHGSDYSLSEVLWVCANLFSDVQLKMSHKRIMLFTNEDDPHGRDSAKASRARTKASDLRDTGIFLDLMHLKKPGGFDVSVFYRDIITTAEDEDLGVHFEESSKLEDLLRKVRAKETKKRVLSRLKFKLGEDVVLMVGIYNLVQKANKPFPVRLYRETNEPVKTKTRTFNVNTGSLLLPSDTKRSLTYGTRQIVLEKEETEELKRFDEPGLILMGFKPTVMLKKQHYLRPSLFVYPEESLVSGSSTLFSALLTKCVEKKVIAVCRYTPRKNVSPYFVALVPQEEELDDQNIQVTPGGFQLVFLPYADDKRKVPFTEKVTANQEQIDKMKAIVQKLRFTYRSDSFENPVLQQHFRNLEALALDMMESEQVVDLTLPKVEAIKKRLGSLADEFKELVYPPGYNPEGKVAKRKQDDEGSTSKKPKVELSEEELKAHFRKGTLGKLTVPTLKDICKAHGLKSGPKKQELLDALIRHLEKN
Sequence of GST-HttExon1-110Q (P42858 whole entry, change not shown): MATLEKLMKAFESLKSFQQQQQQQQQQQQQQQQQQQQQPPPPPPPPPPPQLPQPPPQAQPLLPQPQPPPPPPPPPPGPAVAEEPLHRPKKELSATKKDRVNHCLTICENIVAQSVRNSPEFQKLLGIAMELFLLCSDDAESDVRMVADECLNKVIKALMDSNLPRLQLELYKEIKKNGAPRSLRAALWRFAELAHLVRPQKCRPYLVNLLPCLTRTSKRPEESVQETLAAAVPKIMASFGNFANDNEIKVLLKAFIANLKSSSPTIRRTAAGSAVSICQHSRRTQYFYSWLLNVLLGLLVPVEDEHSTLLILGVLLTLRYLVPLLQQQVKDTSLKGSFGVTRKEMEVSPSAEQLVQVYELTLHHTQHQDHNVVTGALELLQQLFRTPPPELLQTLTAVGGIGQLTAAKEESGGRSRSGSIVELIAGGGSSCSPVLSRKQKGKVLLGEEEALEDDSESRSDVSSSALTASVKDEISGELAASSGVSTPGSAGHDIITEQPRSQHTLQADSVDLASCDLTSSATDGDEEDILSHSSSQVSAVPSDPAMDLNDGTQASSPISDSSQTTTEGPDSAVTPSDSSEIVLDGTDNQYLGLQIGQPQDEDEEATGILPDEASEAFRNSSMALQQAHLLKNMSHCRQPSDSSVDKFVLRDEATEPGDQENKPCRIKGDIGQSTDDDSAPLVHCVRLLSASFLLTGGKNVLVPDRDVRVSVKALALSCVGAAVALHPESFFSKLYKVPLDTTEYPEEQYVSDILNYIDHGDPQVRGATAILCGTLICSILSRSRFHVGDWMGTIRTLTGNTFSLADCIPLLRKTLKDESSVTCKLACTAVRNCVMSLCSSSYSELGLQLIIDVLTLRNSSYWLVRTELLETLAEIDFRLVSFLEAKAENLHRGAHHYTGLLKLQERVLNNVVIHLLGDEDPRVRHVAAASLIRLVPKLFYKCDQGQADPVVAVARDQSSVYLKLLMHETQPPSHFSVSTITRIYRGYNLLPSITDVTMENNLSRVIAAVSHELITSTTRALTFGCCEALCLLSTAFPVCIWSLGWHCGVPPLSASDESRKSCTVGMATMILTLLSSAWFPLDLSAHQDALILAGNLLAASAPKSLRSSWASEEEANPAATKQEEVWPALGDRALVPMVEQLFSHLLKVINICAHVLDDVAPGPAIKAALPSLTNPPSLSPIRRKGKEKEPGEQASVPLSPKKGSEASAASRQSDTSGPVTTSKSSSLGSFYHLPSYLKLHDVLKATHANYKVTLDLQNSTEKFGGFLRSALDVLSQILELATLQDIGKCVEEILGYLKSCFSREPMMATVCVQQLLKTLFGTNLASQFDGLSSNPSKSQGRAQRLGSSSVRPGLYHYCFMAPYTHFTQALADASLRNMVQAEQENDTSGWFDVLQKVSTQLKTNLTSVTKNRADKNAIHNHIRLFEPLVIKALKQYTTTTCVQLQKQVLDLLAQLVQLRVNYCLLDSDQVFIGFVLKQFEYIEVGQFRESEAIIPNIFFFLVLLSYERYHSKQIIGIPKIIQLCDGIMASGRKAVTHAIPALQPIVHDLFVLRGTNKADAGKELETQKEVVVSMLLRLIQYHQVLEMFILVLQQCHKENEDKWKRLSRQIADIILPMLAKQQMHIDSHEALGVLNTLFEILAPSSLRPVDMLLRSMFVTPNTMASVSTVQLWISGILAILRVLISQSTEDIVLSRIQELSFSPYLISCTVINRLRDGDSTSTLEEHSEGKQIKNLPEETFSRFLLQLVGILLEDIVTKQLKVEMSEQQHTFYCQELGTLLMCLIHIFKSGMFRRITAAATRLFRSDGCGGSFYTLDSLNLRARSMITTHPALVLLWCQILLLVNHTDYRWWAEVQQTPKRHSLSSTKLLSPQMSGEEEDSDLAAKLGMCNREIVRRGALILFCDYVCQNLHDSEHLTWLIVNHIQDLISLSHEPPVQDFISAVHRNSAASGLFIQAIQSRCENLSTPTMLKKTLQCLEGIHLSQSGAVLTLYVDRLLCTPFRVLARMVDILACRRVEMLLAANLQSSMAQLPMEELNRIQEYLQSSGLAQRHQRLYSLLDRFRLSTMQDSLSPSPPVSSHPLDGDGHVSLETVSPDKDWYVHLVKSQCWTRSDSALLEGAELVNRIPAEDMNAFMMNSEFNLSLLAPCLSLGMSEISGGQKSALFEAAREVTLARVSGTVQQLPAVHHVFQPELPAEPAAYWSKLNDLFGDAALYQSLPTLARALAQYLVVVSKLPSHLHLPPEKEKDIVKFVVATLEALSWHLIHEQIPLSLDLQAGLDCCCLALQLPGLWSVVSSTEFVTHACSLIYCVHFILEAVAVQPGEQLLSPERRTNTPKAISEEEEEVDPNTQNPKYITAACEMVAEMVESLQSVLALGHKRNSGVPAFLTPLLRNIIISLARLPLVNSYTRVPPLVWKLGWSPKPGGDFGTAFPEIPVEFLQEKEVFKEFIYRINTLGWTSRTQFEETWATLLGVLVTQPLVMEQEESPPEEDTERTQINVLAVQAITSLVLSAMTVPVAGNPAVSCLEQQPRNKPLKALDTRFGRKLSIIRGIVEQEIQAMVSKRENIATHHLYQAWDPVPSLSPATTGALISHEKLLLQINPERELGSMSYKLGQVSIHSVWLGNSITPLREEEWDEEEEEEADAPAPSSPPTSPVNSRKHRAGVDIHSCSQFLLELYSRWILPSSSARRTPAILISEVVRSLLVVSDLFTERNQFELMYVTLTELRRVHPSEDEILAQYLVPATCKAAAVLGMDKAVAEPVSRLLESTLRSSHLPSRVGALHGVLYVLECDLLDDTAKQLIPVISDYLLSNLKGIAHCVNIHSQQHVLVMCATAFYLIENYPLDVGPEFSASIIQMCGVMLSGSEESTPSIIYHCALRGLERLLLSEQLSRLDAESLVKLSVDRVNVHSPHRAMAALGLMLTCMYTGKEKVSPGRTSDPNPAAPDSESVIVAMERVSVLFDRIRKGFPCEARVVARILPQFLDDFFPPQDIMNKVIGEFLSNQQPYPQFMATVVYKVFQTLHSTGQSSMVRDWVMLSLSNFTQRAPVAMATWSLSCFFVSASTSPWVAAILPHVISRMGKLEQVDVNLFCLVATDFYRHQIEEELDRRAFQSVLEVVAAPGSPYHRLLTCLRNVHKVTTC

- fluorescence polarization score: 140
Substance: GST-HttExon1-110Q (domain or fragment)
